Measured values published in the Human Domainome abundance scans (Beltran et al. 2025).
± gives the uncertainty stated by the source.

B1: Glucocorticoid receptor, residues 419 to 494; numbered along this chain, P04150 (parent)
chain: KLCLVCSDEASGCHYGVLTCGSCKVFFKRAVEGQHNYLCAGRNDCIIDKIRRKNCPACRYRKCLQAGMNLEARKTK

Variants of: B1
Assay: abundance fitness (aPCA) (normalised: wild type 0, dead -1); higher = more abundant; growth selection in yeast, the domain comes from the species named
Conditions: Homo sapiens

E71K and N69R are within error of each other in abundance fitness: -0.077 ± 0.056 for the first, 0.01 ± 0.033 for the second.

G12V and S22P are within error of each other in abundance fitness: -0.166 ± 0.035 for the first, -0.06 ± 0.38 for the second.

N69W and R73H are within error of each other in abundance fitness: -0.061 ± 0.043 for the first, -0.109 ± 0.065 for the second.

K53V and Q34H are within error of each other in abundance fitness: -0.037 ± 0.035 for the first, -0.14 ± 0.098 for the second.

N69D and K74H are within error of each other in abundance fitness: -0.033 ± 0.07 for the first, 0.039 ± 0.16 for the second.

First: S11D
Second: D48A
The abundance fitness of the first is higher: 0.021 ± 0.049 for the first, -0.327 ± 0.037 for the second.

K53R and L38F are within error of each other in abundance fitness: -0.015 ± 0.03 for the first, 0.018 ± 0.08 for the second.

Compared with E71L, K74F is higher in abundance fitness: -0.104 ± 0.038 for the first, 0.047 ± 0.077 for the second.

E71Y and S11H are within error of each other in abundance fitness: -0.131 ± 0.081 for the first, 0.008 ± 0.064 for the second.

Going from R29D to K28P, the abundance fitness falls from 0.02 ± 0.072 to -0.243 ± 0.047.

C6Y and T19D are within error of each other in abundance fitness: -0.653 ± 0.13 for the first, -0.909 ± 0.31 for the second.

Compared with V17R, L38K is higher in abundance fitness: -0.141 ± 0.049 for the first, 0.033 ± 0.047 for the second.

Q65G and H14K are within error of each other in abundance fitness: -0.06 ± 0.039 for the first, -0.096 ± 0.049 for the second.

First: V5L
Second: D8R
The abundance fitness of the first is lower: -0.611 ± 0.064 for the first, -0.237 ± 0.036 for the second.

First: K28F
Second: G67A
The abundance fitness of the first is higher: -0.086 ± 0.086 for the first, -0.542 ± 0.067 for the second.

A40C and N43Y are within error of each other in abundance fitness: -0.137 ± 0.076 for the first, -0.008 ± 0.066 for the second.

T75G and L70Q are within error of each other in abundance fitness: 0.044 ± 0.042 for the first, -0.02 ± 0.053 for the second.

I50A and R51M are within error of each other in abundance fitness: -0.004 ± 0.036 for the first, 0.042 ± 0.05 for the second.

Going from I46H to V17H, the abundance fitness falls from -0.045 ± 0.063 to -0.371 ± 0.098.

Compared with C39I, G21H is higher in abundance fitness: -1 ± 0.3 for the first, -0.122 ± 0.072 for the second.

C63M and H14I are within error of each other in abundance fitness: -0.075 ± 0.049 for the first, -0.184 ± 0.069 for the second.

Compared with Y37L, V17P is lower in abundance fitness: -0.003 ± 0.04 for the first, -0.215 ± 0.064 for the second.

K62T and E32S are within error of each other in abundance fitness: -0.047 ± 0.042 for the first, -0.049 ± 0.034 for the second.

Compared with R51P, F27N is lower in abundance fitness: -0.136 ± 0.054 for the first, -0.722 ± 0.25 for the second.

G67I and C55W are within error of each other in abundance fitness: -0.415 ± 0.21 for the first, -0.588 ± 0.059 for the second.

First: C45F
Second: Q65N
The abundance fitness of the first is lower: -0.649 ± 0.21 for the first, -0.071 ± 0.073 for the second.

P56I and N43I are within error of each other in abundance fitness: -0.19 ± 0.072 for the first, -0.233 ± 0.19 for the second.

Going from T75P to I47T, the abundance fitness falls from -0.005 ± 0.048 to -0.125 ± 0.039.

G12R and K49W are within error of each other in abundance fitness: -0.074 ± 0.034 for the first, -0.129 ± 0.038 for the second.

First: C45L
Second: R59F
The abundance fitness of the first is lower: -0.917 ± 0.12 for the first, -0.513 ± 0.12 for the second.

Going from L38E to E32F, the abundance fitness falls from 0.012 ± 0.036 to -0.192 ± 0.074.

V31Q and M68C are within error of each other in abundance fitness: -0.017 ± 0.048 for the first, -0.12 ± 0.06 for the second.

R61D and K74N are within error of each other in abundance fitness: 0.016 ± 0.064 for the first, -0.01 ± 0.094 for the second.

Going from C3V to G33K, the abundance fitness rises from -1.13 ± 0.17 to 0.034 ± 0.06.

First: A57F
Second: A30W
The abundance fitness of the first is lower: -0.457 ± 0.12 for the first, -0.183 ± 0.042 for the second.

K76Y and D48E are within error of each other in abundance fitness: -0.206 ± 0.17 for the first, -0.072 ± 0.043 for the second.

R61E and E32C are within error of each other in abundance fitness: 0.026 ± 0.046 for the first, -0.031 ± 0.056 for the second.

Going from C45A to Y15T, the abundance fitness rises from -0.797 ± 0.1 to -0.05 ± 0.046.

A72N and A66Q are the same in abundance fitness: -0.037 ± 0.072 for the first, -0.037 ± 0.059 for the second.

C3M and V5H are within error of each other in abundance fitness: -0.763 ± 0.15 for the first, -0.848 ± 0.33 for the second.

Going from K53A to G33C, the abundance fitness falls from 0.014 ± 0.039 to -0.176 ± 0.065.

For S7R, the abundance fitness was -0.048 ± 0.031.
